Assay results taken from paper PMC4447253 (mBio, 2015).

B1: TraR-His (GntR-type transcriptional repressor TraR of plasmid pSVH1) (natural protein, Streptomyces venezuelae (plasmid pSVH1), UniProt Q3LAJ7 1-252, looked up)
chain: MTSTQSEKRVTARSIADDLRGKIRSGQLLPGSVLPTTKALAEEHGVSSKTVSAGIDLLKLEGLVVGEQGGRRRVRADRPITWNLTRFERGARRDSAVMDDWSTAISEAGRTPEQHVSVSRETANSDIAGWLQVPVGDDVVKRVRMRTVDGRPFQLSTSYFPKHVAVGTLLEEPGDVAVPGGILSHIGHPQLRVRDEISVRMPSPEESQELALPPGTPVAQHVRVGYGETGPVRVMVTIAPGDRHTLVYELEV
B2: SpdB2-His (SpdB2 of plasmid pSVH1) (natural protein, Streptomyces venezuelae (plasmid pSVH1), UniProt Q3LAJ4 1-409, looked up)
chain: MSTYREEKRLDDQLRAEQKLRNEQLRAEQAREDRRLELEATQQRDAARAEEKRKDAEAKRRQEQAEKKARAAEQQAKKAAAAAKRAKLVRWLKANPATLFVGFVMVASIVPALLSQIGALTGATVAAPMAGLLAAMLEGGAWAITFMGKQAEDAGREPRKYRIGTWAVATVAAAVNFWHGLEAYGEHPWVAFVLGASSLFAIYIWDLKTHGSHGKTKEQKQAEKARRAHVSARRKHHPEIVEQAVKLQAALPYGVLDDESAFAAAWRIHTGAEPGLSAQLYATATEAVLQLGAAFELGDNVRDELLETGFKAARLNPFAELAQVPGSQAGLEENAPQGPASALRPDAPEGKSPEELEALLPDAVAAAAELVAEGRQISAHGLAKKLQIRRVDAALLRDRVIEQRRLHVA

Legend:
[1] = target: the molecule itself; assay: cross-linking
[2] = target: the molecule itself; assay: native gel or EMSA

Row | Protein | stoichiometry N [1] | binding result [2]
1 | B1 | 2 | 
2 | B2 |  | binds
